Patent publication US20250340655A1, “EPHA2-TARGETING ANTIBODIES AND THEIR APPLICATIONS IN CANCER TREATMENT” (TAIPEI MEDICAL UNIVERSITY, priority 2022, published 2025)
Square brackets hold non-standard residues; d marks the D form. Peptide text beside a SMILES is read from it. * marks the point of attachment. Dolaproine = CO[C@@H]([C@@H]1CCCN1)[C@@H](C)C(=O)O; Dil = CC[C@H](C)[C@H](NC)[C@@H](CC(=O)O)OC; X1 = C[C@@H](N*)[C@@H](O)c1ccccc1; NMeV = CN[C@H](C(=O)O)C(C)C

B1: scFv SD5: chicken derived anti-EphA2 scFv, SEQ ID NO: 11 (light chain SEQ ID NO: 7, heavy chain SEQ ID NO: 9) (protein)
scFv: LTQPSSVSANLGETVKIPCSGSSGSYGWYQQKSPGSAPVTLIYDNDKRPSDIPSRFFGSTSGSTSTLTITGVQAEDEAVYFCGSADSSTYVGMFGAGTTLTVLGQSSRSSTVTLDESGGGLQTPGGGLSLVCKASGFTFSDYGMGWVRQAPGKGLEFVAGISAAGSFTPYGAAVKGRATISRDNGQSTVRLQLNNLRSEDTGIYYCARIPSGYRAGEIYTWGQGTEVIVSS

Key:
hTERT HPNE = assay: Growth inhibitory response to serially diluted MMAE, normal pancreatic cell line; assay type: cell-based; details: serially diluted MMAE (FIG. 10)
[1] = Int J Mol Sci. 21 (9): 3286 (2020); cited from earlier work
EphA2 = EphA2 (Homo sapiens, UniProt P29317); assay: Western blotting under reducing (SDS-PAGE) and non-reducing (Native-PAGE) conditions; assay type: binding; details: Native-PAGE vs SDS-PAGE (FIG. 3D)
Chain of EphA2 (P29317 24-976): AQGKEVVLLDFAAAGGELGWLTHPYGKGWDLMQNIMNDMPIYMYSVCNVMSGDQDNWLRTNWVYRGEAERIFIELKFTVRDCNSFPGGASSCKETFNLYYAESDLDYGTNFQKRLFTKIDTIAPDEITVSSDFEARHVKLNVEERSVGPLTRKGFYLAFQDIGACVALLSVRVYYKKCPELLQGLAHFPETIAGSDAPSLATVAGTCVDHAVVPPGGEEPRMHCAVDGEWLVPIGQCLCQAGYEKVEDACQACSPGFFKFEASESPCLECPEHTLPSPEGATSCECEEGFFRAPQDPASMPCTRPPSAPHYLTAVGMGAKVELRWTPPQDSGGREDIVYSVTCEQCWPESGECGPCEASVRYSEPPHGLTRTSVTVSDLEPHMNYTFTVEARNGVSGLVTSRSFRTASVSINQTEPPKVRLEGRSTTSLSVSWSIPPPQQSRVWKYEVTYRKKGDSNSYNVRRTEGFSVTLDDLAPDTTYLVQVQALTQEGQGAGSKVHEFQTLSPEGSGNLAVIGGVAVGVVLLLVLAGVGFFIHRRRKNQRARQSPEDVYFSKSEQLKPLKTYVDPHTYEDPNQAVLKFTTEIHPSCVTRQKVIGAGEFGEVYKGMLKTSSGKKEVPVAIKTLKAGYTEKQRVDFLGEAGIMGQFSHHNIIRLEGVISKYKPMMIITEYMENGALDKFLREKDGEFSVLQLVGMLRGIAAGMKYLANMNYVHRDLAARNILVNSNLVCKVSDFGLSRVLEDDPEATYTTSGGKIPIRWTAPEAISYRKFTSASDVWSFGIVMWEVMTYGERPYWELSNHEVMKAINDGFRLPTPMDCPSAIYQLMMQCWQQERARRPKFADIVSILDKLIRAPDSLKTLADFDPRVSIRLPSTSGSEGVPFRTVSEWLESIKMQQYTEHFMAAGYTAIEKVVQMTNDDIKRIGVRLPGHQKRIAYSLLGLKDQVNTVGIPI
Method: The recombinant EphA2 protein was transferred onto nitrocellulose membranes (GE Healthcare Life Sciences) after electrophoresis using sodium dodecyl sulfate-polyacrylamide gel (SDS-PAGE) or nativepolyacrylamide gel (Native-PAGE), and the membranes were incubated with using purified scFv antibodies to determine binding reactivity. The membranes were blocked with 5% skim milk and then incubated with scFv at room temperature for 1 h. After washing with PBST, the membranes were detected and developed using HRP-conjugated goat anti-chicken light chain antibodies. Finally, the 3,3′-diaminobenzidine substrate was added for color development until the desired color intensity was reached.

[2] = molecular target: T1, endogenous EphA2 molecules on 4 pancreatic cancer cell lines (AsPc-1, BxPc-3, Panc-1, Mia PaCa-2) (Homo sapiens, UniProt P29317); assay: Flow cytometry binding on pancreatic cancer cells; details: 4 PAAD cell lines (FIG. 3E)
T1 construct: with endogenous EphA2 molecule expression; endogenous in cells; host or cells: AsPc-1, BxPc-3, Panc-1, Mia PaCa-2
T1 sequence (P29317 24-976): as above
Method: Four PAAD cells AsPc-1, BxPc-3, Panc-1, and Mia PaCa-2 with endogenous EphA2 molecule expression, were analyzed through flow cytometry to determine the binding reactivity of indicated scFvs. Freshly prepared cancer cells were harvested and washed twice with PBS. Then, individual scFv was added and incubated at room temperature for 1 h. Bound scFv was visualized using goat anti-chicken light chain antibodies and donkey anti-goat antibodies conjugated with fluorescein isothiocyanate (FITC; Jackson ImmunoResearch Laboratories). An irrelevant scFv was used as the negative control, and commercially available goat anti-EphA2 antibodies were used as the positive control (R&D Systems) in the assay. The results were analyzed using a FACS can flow cytometer (BD Biosciences, Systems and Reagents).

[3] = molecular target: T2, natural EphA2 molecule in the lysate of 4 pancreatic cancer cell lines (Homo sapiens, UniProt P29317); assay: Immunoprecipitation (pull down) from PAAD cell lysates; assay type: binding; details: lysates of four PAAD cell lines (FIG. 3F)
T2 construct: with endogenous EphA2 molecule expression; endogenous in cells; host or cells: AsPc-1, BxPc-3, Panc-1, Mia PaCa-2
T2 sequence (P29317 24-976): as above
Method: For the immunoprecipitation assay, 300 μg of each PAAD cell lysate was incubated with 50 μg of antiEphA2 scFv (scFv was fused with a His tag) at 4° C. overnight. On the next day, 30 μL of Ni^2+-charged sepharose was added to the mixture and incubated for 1 h at 4° C. After three rounds of washing with NiNTA wash buffer (50 mM NaH2PO4, 300 mM NaCl, and 10 mM imidazole, pH 8.0), the scFv-bound sepharose beads were resuspended in 50 μL of PBS buffer. Subsequently, the sepharose solution was denatured at 95° C. for 10 min and analyzed using SDS-PAGE. After the proteins were transferred to a polyvinylidene fluoride membrane, the membrane was detected using the anti-EphA2 antibody (R&D Systems) and anti-His (Proteintech Group) antibody at 4° C. overnight. On the next day, after washing with PBST, the membrane was incubated with HRP-conjugated secondary antibody (Jackson ImmunoResearch Laboratories). Finally, the chemiluminescence substrate was added for luminal signal detection.

AsPc-1 = assay: MTS cell proliferation assay, AsPc-1; assay type: cell-based, human; design: dose or concentration left out as unconfirmed; details: AsPc-1, MTS, Day 5, scFv
Method: (§1) PAAD cell proliferation was measured using a 3-(4,5-dimethylthiazol-2-yl)-5-(3-carboxymethoxyphenyl)-2-(4-sulfophenyl)-2H-tetrazolium (MTS) Cell Proliferation Assay Kit (Promega). The cells were seeded in a 96-well culture plate at a density of 5000 cells/well for attachment. Then, scFv at various concentrations was added to the cell culture and incubated for 5 days. Finally, MTS and phenazine methosulfate solutions were added and incubated for 90 min for development. After the SDS reagent was added to stop the reaction, the absorbance of each well was measured by determining the OD at 490 nm.

BxPc-3 [4] = assay: MTS cell proliferation assay, BxPc-3; assay type: cell-based, human; design: dose or concentration left out as unconfirmed; details: BxPc-3, MTS, Day 5, scFv
Method: as §1

Panc-1 [5] = assay: MTS cell proliferation assay, Panc-1; assay type: cell-based, human; design: dose or concentration left out as unconfirmed; details: Panc-1, MTS, Day 5, scFv
Method: as §1

Mia PaCa-2 [6] = assay: MTS cell proliferation assay, Mia PaCa-2; assay type: cell-based, human; design: dose or concentration left out as unconfirmed; details: Mia PaCa-2, MTS, Day 5, scFv
Method: as §1

BxPc-3 and Mia PaCa-2 [7] = assay: Transwell migration assay (FIG. 5A); assay type: cell-based, human; design: dose or concentration left out as unconfirmed; details: scFv for 2 days
Method: (§2) PAAD cells were seeded at 5×10^4 cells/well in a 24-well Transwell cell migration plate (Corning) and incubated with scFv for 2 days. In the assay, recombinant ephrin-A1 (Sino Biological) was added as a positive control. After scFv treatment, the cells were fixed with frozen 100% methanol for 10 min and stained with 0.01% crystal violet for 1 h at room temperature. After the pate was washed with ddH2O, the upper-layer cells were removed using cotton swabs. Cell staining was imaged using a microscope and analyzed using ImageJ. For the scratch wound healing assay, PAAD cells were seeded in a 6-well culture plate. The seeded cells in the well were scratched with a pipette tip to simulate a wound. After treatment with scFv and incubation for 36 or 72 h, the cells were imaged using a microscope. The wound areas were analyzed using ImageJ.

Panc-1 [8] = assay: Transwell migration assay, Panc-1; assay type: cell-based, human; details: Panc-1, transwell migration assay (FIG. 5B)
Method: as §2

BxPc-3 [9] = assay: Transwell migration assay, BxPc-3; assay type: cell-based, human; details: BxPc-3, transwell migration assay (FIG. 5B)
Method: as §2

BxPc-3 and Mia PaCa-2 [10] = assay: Scratch wound healing assay (FIG. 5C); assay type: cell-based, human; details: after 36 and 72 h of treatment with scFv
Method: as §2
(§3) For the scratch wound healing assay, PAAD cells were seeded in a 6-well culture plate. The seeded cells in the well were scratched with a pipette tip to simulate a wound. After treatment with scFv and incubation for 36 or 72 h, the cells were imaged using a microscope. The wound areas were analyzed using ImageJ.

Mia PaCa-2 [11] = assay: Scratch wound healing assay, Mia PaCa-2; assay type: cell-based, human; details: Mia PaCa-2, wound healing assay (FIG. 5D)
Method: as §2, §3

BxPc-3 [12] = assay: Scratch wound healing assay, BxPc-3; assay type: cell-based, human; details: BxPc-3, wound healing assay (FIG. 5D)
Method: as §2, §3

| Molecule | growth inhibition of normal pancreatic cell line (hTERT HPNE) | potency relative to doxorubicin [1] | recognition of EphA2 protein in native and denatured form (EphA2) | binding response to EphA2 molecules on cancer cells [2] | pull down of EphA2 from cell lysates [3] | growth inhibition (AsPc-1) | growth inhibition (BxPc-3 [4]) [%] | growth inhibition (Panc-1 [5]) | growth inhibition (Mia PaCa-2 [6]) | number of migrated cancer cells (BxPc-3 and Mia PaCa-2 [7]) | migration inhibition (Panc-1 [8]) [%] | migration inhibition (BxPc-3 [9]) [%] | migration of cancer cells in wound healing assay (BxPc-3 and Mia PaCa-2 [10]) | migration inhibitory effect (Mia PaCa-2 [11]) [%] | migration inhibitory effect (BxPc-3 [12]) [%] |
| --- | --- | --- | --- | --- | --- | --- | --- | --- | --- | --- | --- | --- | --- | --- | --- |
| CC[C@H](C)[C@@H]([C@@H](CC(=O)N1CCC[C@H]1[C@H](OC)[C@@H](C)C(=O)N[C@H](C)[C@@H](O)c1ccccc1)OC)N(C)C(=O)[C@@H](NC(=O)[C@@H](NC)C(C)C)C(C)C [MMAE, Monomethyl auristatin E] (H-[NMeV]V[Dil][Dolaproine]-X1) | only mild effect | 100-1000 times |  |  |  |  |  |  |  |  |  |  |  |  |  |
| B1 |  |  | can recognize EphA2 in the native form, but not in the denatured form | significant binding response | captured free EphA2 molecules | approximately 80% | 58.5 | approximately 80% | approximately 80% | reduced effectively | 65 | 91 | inhibited the migration of cancer cells | 65 | 67 |
